Data taken from patent US20260167699A1 (Chugai, published 2026).
Positions count from the first letter of the chain named.

T1: FcγRIIa(R) extracellular domain, C-terminal His tag (human, UniProt P12318 34-217)
T1 construct: extracellular domain; Allotype R131; also called 2aR
T1 sequence: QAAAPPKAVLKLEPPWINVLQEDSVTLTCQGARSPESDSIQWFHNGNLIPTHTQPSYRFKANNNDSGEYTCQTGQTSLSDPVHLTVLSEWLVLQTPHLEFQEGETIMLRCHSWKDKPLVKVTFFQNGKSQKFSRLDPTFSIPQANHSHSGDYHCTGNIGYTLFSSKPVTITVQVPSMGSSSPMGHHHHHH

T2: FcγRIIa(H) extracellular domain, C-terminal His tag (human, UniProt P12318 34-217)
T2 construct: extracellular domain; Allotype H131; also called 2aH
T2 sequence: T1 sequence with R134H

T3: FcγRIIb extracellular domain, C-terminal His tag (human, UniProt P31994 43-217)
T3 construct: extracellular domain; also called 2b
T3 sequence: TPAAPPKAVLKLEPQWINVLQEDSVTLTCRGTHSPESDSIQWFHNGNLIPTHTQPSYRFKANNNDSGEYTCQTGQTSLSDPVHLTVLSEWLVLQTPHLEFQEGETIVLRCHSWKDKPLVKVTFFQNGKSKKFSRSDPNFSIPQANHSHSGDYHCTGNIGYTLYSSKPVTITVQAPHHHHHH

B1: GpH7-A5/GpH7-B3 variant E333_12R/GpL16-k0 (antibody, human IgG1, kappa)
heavy 1: not shown
heavy 2: not shown
light: DIVMTQSPLSLPVTPGEPASISCQASESLVHSNRNTYLHWYLQKPGQSPQLLIYKVSNRFSGVPDRFSGSGSGTDFTLKISRVEAEDVGVYYCSQNTHVPPTFGQGTKVEIERTVAAPSVFIFPPSDEQLKSGTASVVCLLNNFYPREAKVQWKVDNALQSGNSQESVTEQDSKDSTYSLSSTLTLSKADYEKHKVYACEVTHQGLSSPVTKSFNRGEC
notes: He Ab: anti-glypican 3 IgG1 heterodimer, only the GpH7-B3 chain mutated; position in EU numbering; also called He Ab
B2: GpH7-A5/GpH7-B3 variant I332_10E/GpL16-k0 (antibody, human IgG1, kappa)
heavy 1: not shown
heavy 2: not shown
light: B1 light
notes: as for B1
B3: GpH7-A5/GpH7-B3 variant K326_01G/GpL16-k0 (antibody, human IgG1, kappa)
heavy 1: not shown
heavy 2: not shown
light: B1 light
notes: as for B1
B4: GpH7-A5/GpH7-B3 variant I332_03V/GpL16-k0 (antibody, human IgG1, kappa)
heavy 1: not shown
heavy 2: not shown
light: B1 light
notes: as for B1
B5: GpH7-A5/GpH7-B3 variant K326_09D/GpL16-k0 (antibody, human IgG1, kappa)
heavy 1: not shown
heavy 2: not shown
light: B1 light
notes: as for B1
B6: GpH7-A5/GpH7-B3 variant E333_18N/GpL16-k0 (antibody, human IgG1, kappa)
heavy 1: not shown
heavy 2: not shown
light: B1 light
notes: as for B1
B7: GpH7-A5/GpH7-B3 variant I332_19Q/GpL16-k0 (antibody, human IgG1, kappa)
heavy 1: not shown
heavy 2: not shown
light: B1 light
notes: as for B1
B8: GpH7-A5/GpH7-B3 variant K326_10E/GpL16-k0 (antibody, human IgG1, kappa)
heavy 1: not shown
heavy 2: not shown
light: B1 light
notes: as for B1
B9: GpH7-A5/GpH7-B3 variant I332_04F/GpL16-k0 (antibody, human IgG1, kappa)
heavy 1: not shown
heavy 2: not shown
light: B1 light
notes: as for B1
B10: GpH7-A5/GpH7-B3 variant K326_08L/GpL16-k0 (antibody, human IgG1, kappa)
heavy 1: not shown
heavy 2: not shown
light: B1 light
notes: as for B1
B11: GpH7-A5/GpH7-B3 variant K326_03V/GpL16-k0 (antibody, human IgG1, kappa)
heavy 1: not shown
heavy 2: not shown
light: B1 light
notes: as for B1
B12: GpH7-A5/GpH7-B3 variant K326_16H/GpL16-k0 (antibody, human IgG1, kappa)
heavy 1: not shown
heavy 2: not shown
light: B1 light
notes: as for B1
B13: GpH7-A5/GpH7-B3 variant I332_02A/GpL16-k0 (antibody, human IgG1, kappa)
heavy 1: not shown
heavy 2: not shown
light: B1 light
notes: as for B1
B14: GpH7-A5/GpH7-B3 variant K326_12R/GpL16-k0 (antibody, human IgG1, kappa)
heavy 1: not shown
heavy 2: not shown
light: B1 light
notes: as for B1
B15: GpH7-A5/GpH7-B3 variant K326_02A/GpL16-k0 (antibody, human IgG1, kappa)
heavy 1: not shown
heavy 2: not shown
light: B1 light
notes: as for B1
B16: GpH7-A5/GpH7-B3 variant K326_19Q/GpL16-k0 (antibody, human IgG1, kappa)
heavy 1: not shown
heavy 2: not shown
light: B1 light
notes: as for B1
B17: GpH7-A5/GpH7-B3 variant K326_05P/GpL16-k0 (antibody, human IgG1, kappa)
heavy 1: not shown
heavy 2: not shown
light: B1 light
notes: as for B1
B18: GpH7-A5/GpH7-B3 variant K326_06M/GpL16-k0 (antibody, human IgG1, kappa)
heavy 1: not shown
heavy 2: not shown
light: B1 light
notes: as for B1
B19: GpH7-A5/GpH7-B3 variant K326_04F/GpL16-k0 (antibody, human IgG1, kappa)
heavy 1: not shown
heavy 2: not shown
light: B1 light
notes: as for B1
B20: GpH7-A5/GpH7-B3 variant K326_13S/GpL16-k0 (antibody, human IgG1, kappa)
heavy 1: not shown
heavy 2: not shown
light: B1 light
notes: as for B1
B21: GpH7-A5/GpH7-B3 variant L328_03V/GpL16-k0 (antibody, human IgG1, kappa)
heavy 1: not shown
heavy 2: not shown
light: B1 light
notes: as for B1
B22: GpH7-A5/GpH7-B3 variant I332_14T/GpL16-k0 (antibody, human IgG1, kappa)
heavy 1: not shown
heavy 2: not shown
light: B1 light
notes: as for B1
B23: GpH7-A5/GpH7-B3 variant K326_07I/GpL16-k0 (antibody, human IgG1, kappa)
heavy 1: not shown
heavy 2: not shown
light: B1 light
notes: as for B1
B24: GpH7-A5/GpH7-B3 variant K326_18N/GpL16-k0 (antibody, human IgG1, kappa)
heavy 1: not shown
heavy 2: not shown
light: B1 light
notes: as for B1
B25: GpH7-A5/GpH7-B3 variant K326_14T/GpL16-k0 (antibody, human IgG1, kappa)
heavy 1: not shown
heavy 2: not shown
light: B1 light
notes: as for B1
B26: GpH7-A5/GpH7-B3 variant I332_16H/GpL16-k0 (antibody, human IgG1, kappa)
heavy 1: not shown
heavy 2: not shown
light: B1 light
notes: as for B1
B27: GpH7-A5/GpH7-B3 variant L328_02A/GpL16-k0 (antibody, human IgG1, kappa)
heavy 1: not shown
heavy 2: not shown
light: B1 light
notes: as for B1
B28: GpH7-A5/GpH7-B3 variant I332_06M/GpL16-k0 (antibody, human IgG1, kappa)
heavy 1: not shown
heavy 2: not shown
light: B1 light
notes: as for B1
B29: GpH7-A5/GpH7-B3 variant I332_13S/GpL16-k0 (antibody, human IgG1, kappa)
heavy 1: not shown
heavy 2: not shown
light: B1 light
notes: as for B1
B30: GpH7-A5/GpH7-B3 variant K326_15Y/GpL16-k0 (antibody, human IgG1, kappa)
heavy 1: not shown
heavy 2: not shown
light: B1 light
notes: as for B1

The binders below were run against T4, FcγRIa extracellular domain, C-terminal His tag (human, UniProt P12314 16-292) (assay: SPR (Biacore); binding relative to GpH7-A5/GpH7-B3/GpL16-k0 x100;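 further: antibodies captured on a chip surface, soluble FcγR flowed over in HBS-EP+ running buffer at 25 °C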).
T4 construct: extracellular domain; also called 1a
T4 sequence (P12314 other isoform, or with tags, fused parts or gaps): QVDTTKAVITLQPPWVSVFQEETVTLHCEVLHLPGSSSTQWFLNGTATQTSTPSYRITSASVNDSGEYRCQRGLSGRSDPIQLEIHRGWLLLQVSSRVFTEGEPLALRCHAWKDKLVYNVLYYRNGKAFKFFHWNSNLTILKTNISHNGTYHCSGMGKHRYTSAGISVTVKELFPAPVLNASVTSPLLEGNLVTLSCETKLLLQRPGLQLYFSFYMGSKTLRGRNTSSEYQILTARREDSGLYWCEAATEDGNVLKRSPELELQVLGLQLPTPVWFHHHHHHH
Experimental: (§1) The antibody of interest was analyzed for its interaction with FcγR using a BiaCore™ T100, BiaCore™ A100, or BiaCore™ 4000 surface plasmon resonance system (GE Healthcare Japan Corp.). The running buffer used was HBS-EP+ (GE Healthcare Japan Corp.). The assay temperature was set to 25° C. The sensor chips used were: a chip prepared by immobilizing antigenic peptides onto Series S Sensor Chip CM5 (GE Healthcare Japan Corp.) by the amine coupling method; a chip prepared by immobilizing antigenic peptides biotinylated in advance onto Series S Sensor Chip SA (certified) (GE Healthcare Japan Corp.) through their interaction; a chip prepared by immobilizing protein L (ACTIGEN, BioVision, Inc.) onto Series S Sensor Chip CM5 (GE Healthcare Japan Corp.); and a chip prepared by immobilizing protein A/G (Thermo Fisher Scientific K.K.) onto Series S Sensor Chip CM5 (GE Healthcare Japan Corp.). The antibody of interest was captured onto any of these chips and allowed to interact with FcγR diluted with a running buffer. The antibody captured on the chip was washed off through the reaction of 10 mM glycine-HCl (pH 1.5) to regenerate the chip, which was repetitively used.

He/Con 1a | Binder
96.7% | B1
109% | B2
106% | B3
100% | B4
109% | B5
91.4% | B6
103% | B7
109% | B8
106% | B9
105% | B10
107% | B11
109% | B12
100% | B13
105% | B14
107% | B15
108% | B16
106% | B17
108% | B18
107% | B19
106% | B20
103% | B21
104% | B22
106% | B23
110% | B24
109% | B25
100% | B26
101% | B27
105% | B28
97.3% | B29
111% | B30

The binders below were run against T1, FcγRIIa(R) extracellular domain, … in the same assay as above.
Experimental: as §1

He/Con 2aR | Binder
127% | B1
113% | B2
108% | B3
87% | B4
142% | B5
118% | B6
95.1% | B7
142% | B8
104% | B9
131% | B10
135% | B11
115% | B12
96.9% | B13
98.6% | B14
125% | B15
124% | B16
118% | B17
132% | B18
129% | B19
119% | B20
150% | B21
104% | B22
141% | B23
110% | B24
128% | B25
97.6% | B26
150% | B27
108% | B28
97.9% | B29
131% | B30

These binders were tested against T2, FcγRIIa(H) extracellular domain, … in the same assay as above.
Experimental: as §1

He/Con 2aH | Binder
110% | B1
112% | B2
105% | B3
108% | B4
115% | B5
110% | B6
112% | B7
106% | B8
108% | B9
96.5% | B10
101% | B11
102% | B12
115% | B13
105% | B14
110% | B15
106% | B16
103% | B17
108% | B18
101% | B19
110% | B20
116% | B21
119% | B22
104% | B23
113% | B24
119% | B25
113% | B26
154% | B27
114% | B28
113% | B29
102% | B30

The binders below were run against T3, FcγRIIb extracellular domain, … in the same assay as above.
Experimental: as §1

He/Con 2b | Binder
104% | B1
158% | B2
119% | B3
89.5% | B4
216% | B5
98.2% | B6
104% | B7
224% | B8
115% | B9
198% | B10
196% | B11
133% | B12
114% | B13
100% | B14
156% | B15
156% | B16
141% | B17
185% | B18
174% | B19
139% | B20
157% | B21
118% | B22
223% | B23
118% | B24
168% | B25
103% | B26
180% | B27
116% | B28
109% | B29
179% | B30

These binders were tested against T5, FcγRIIIa extracellular domain, C-terminal His tag (human, UniProt P08637 17-208) in the same assay as above.
T5 construct: extracellular domain; also called 3a
T5 sequence (P08637 other isoform, or with tags, fused parts or gaps): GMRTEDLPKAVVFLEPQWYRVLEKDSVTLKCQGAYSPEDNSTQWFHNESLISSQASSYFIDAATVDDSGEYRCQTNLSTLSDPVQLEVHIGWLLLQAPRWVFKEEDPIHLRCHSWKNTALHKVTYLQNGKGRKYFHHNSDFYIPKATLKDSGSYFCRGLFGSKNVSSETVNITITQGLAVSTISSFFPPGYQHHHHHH
Experimental: as §1

He/Con 3a | Binder
92.2% | B1
213% | B2
114% | B3
85.2% | B4
148% | B5
76.2% | B6
101% | B7
138% | B8
89.3% | B9
126% | B10
135% | B11
106% | B12
103% | B13
101% | B14
130% | B15
117% | B16
117% | B17
127% | B18
114% | B19
118% | B20
80.9% | B21
110% | B22
153% | B23
134% | B24
140% | B25
89% | B26
81.3% | B27
92.5% | B28
95.6% | B29
124% | B30
